# In patent US20130224224A1 (Boehringer Ingelheim, published 2013):
# T1: human CX3CR1 (human, UniProt P49238 1-355)
# T1 construct: overexpressed on CHO, BA/F3 or HEK293T cells; also called huCX3CR1; hCX3CR1
# T1 sequence: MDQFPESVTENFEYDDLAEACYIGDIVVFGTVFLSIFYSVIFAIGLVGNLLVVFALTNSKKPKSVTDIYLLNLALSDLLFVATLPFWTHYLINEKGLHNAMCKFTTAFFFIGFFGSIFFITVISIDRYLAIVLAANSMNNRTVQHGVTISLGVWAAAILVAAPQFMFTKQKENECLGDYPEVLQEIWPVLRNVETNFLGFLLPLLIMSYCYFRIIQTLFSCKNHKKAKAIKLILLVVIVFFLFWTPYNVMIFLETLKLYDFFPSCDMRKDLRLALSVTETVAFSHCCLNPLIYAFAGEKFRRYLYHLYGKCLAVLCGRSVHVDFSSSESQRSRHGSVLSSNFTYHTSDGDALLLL
# Target: T1, human CX3CR1
# Assay: periplasmic extract, A647-fractalkine competition FACS, CHO-huCX3CR1
# From the text: Periplasmic extracts were screened in a human CX3CR1/human Fractalkine FACS competition assay to assess the blocking capacity of the expressed VHHs. Human CX3CR1 was presented on CHO cells overexpressing CX3CR1. Both a setup using cells harvested from an actively growing culture and a setup using frozen cells was used. As a detection reagent labeled fractalkine was used (R&D Systems, Minneapolis, Minn., USA) labeled with alexa647 (A647-Fractalkine) at a degree of labeling of 1. To setup the assay, first a titration series of the labeled fractalkine was performed on the CHO-huCX3CR1 cells in order to determine the EC50 value for binding. Initially screening was performed at a higher concentration of fractalkine (3 nM) to increase the assay robustness. To increase the sensitivity of the screening to a maximum, the EC30 concentration (1 nM) was chosen for subsequent screening. In brief 50 μl of periplasmic extract was added to 6 nM labeled fractalkine (50 μ;) and 200 000 CHO-huCX3CR1 cells. After one hour incubation at 4 C, cells were washed three times before read out was performed on a FACS Array (Becton Dickinson). First a gate was set on the intact cells as determined from the scatter profile. Next, dead cells were gated out by their fluorescence profile from the PI stain (Sigma, St Louis, US). The fluorescence profile from the alexa647 label was determined for each sample and used for calculation of blocking capacity. As controls, conditions were taken along where there was no VHH present in the peri extract or a known irrelevant VHH and samples were included where excess cold fractalkine was included. For each sample the percentage block was determined using the control samples to determine the assay window.
row,% block,Binder
1,78%,"CX3CR1BIIPMP61A11 (VHH, tested as periplasmic extract; not shown: C-terminal c-myc and His6 tags) VHH: EVQLVESRGGSVQAGESLRLSCAASGSIFSSNAMAWYRQAPGKQRDLVAVINSVGITKYADSVKGRFTISGDNAKNTVYLQMNSLKPEDTAVYYCTSDARRGWDTRYWGQGTQVTVSS"
2,68.4%,"CX3CR1BIIPMP61D1 (VHH, tested as periplasmic extract; not shown: C-terminal c-myc and His6 tags) VHH: EVQLVESGGGSVQAGESLRLSCAASGSIFSSNAMAWYRQAFGKQRDLVALINSVGITKYADSVKGRFTISRDNAKNTVYLQMNSLKPEDTAVYYCTSDPRRGWDTRYWGQGTQVTVSS"
3,73.5%,"CX3CR1BIIPMP61F10 (VHH, tested as periplasmic extract; not shown: C-terminal c-myc and His6 tags) VHH: KVQLVESGGGSVQAGESLRLSCAASGTIFSSNAMAWYRQAPGKQRDLVAGINSVDITKYADSVKGRFTISRDNAKNTVYLQMNSLKPEDTAVYYCTSDPRRGWNTRYWGQGTQVTVSS"
4,90.8%,"CX3CR1BIIPMP54A3 (VHH, tested as periplasmic extract; not shown: C-terminal c-myc and His6 tags) VHH: EVQLVESGGGSVQAGESLRLSCAASGSIFSSNAMAWYRQAPGKQRDLVAGINSVGITKYADSVKGRFTISRDNAKNTVYLQMNSLKPEDTAVYYCTSDPRRGWDTRYWGQGTQVTVSS"
5,92.6%,"CX3CR1BIIPMP54B5 (VHH, tested as periplasmic extract; also called CX3CR1BII54B5; not shown: C-terminal c-myc and His6 tags) VHH: EVQLVESGGGSVQAGESLRLSCAASGSIFSSNAMAWYRQAPGKQRDLVAGINSVGITKYADSVKGRFTISRDNAKNTAYLQMNSLKPEDTAVYYCTSDPRRGWDTRYWGQGTLVTVSS"
6,92.1%,"CX3CR1BIIPMP54B1 (VHH, tested as periplasmic extract; not shown: C-terminal c-myc and His6 tags) VHH: EVQLVESGGGSVQAGESLRLSCAASGSIFSSNAMAWYRQAPGKQRDLVAGINSVGITKYADSVKGRFTISRDNAKNTAYLQMNSLKPEDTAVYYCTSDPRRGWDTRYWGQGTQVTVSS"
7,92.5%,"CX3CR1BIIPMP54A5 (VHH, tested as periplasmic extract; not shown: C-terminal c-myc and His6 tags) VHH: EVQLVESGGGSVQAGESLRLSCAASGSIFSSNAMAWYRQAPGKQRDLVAGINSVGITKYADSVKGRFTISRDNAKNTVYLQMNSLKPEDTAVYYCTSDPRRGWDTRYWGQGTLVTVSS"

# The remaining lines, values behind:
row,Binder,% block
1,"CX3CR1BIIPMP61C9 (VHH, tested as periplasmic extract; not shown: C-terminal c-myc and His6 tags) VHH: EVQLVKSGGGSVQAGESLRLSCAASGSIFSSNAMAWYRQALGKQRDLVALIDSAGITKYADSVKGRFTISRDNAKNTVYLQMNRLKPEDTAVYYCASDARRGWNTKYWGQGTLVTVSS",69.4%
2,"CX3CR1BIIPMP54F6 (VHH, tested as periplasmic extract; not shown: C-terminal c-myc and His6 tags) VHH: KVQLVESGGGSVQAGESLRLSCAASGSIFSSNAMAWYRQAPGKQRDLVAAINSVGITKYADSVKGRFTISRDNAKNTVYLQMNSLKPEDTAVYYCTSDPRRGWDTRYWGQGTLVTVSS",96.6%
3,"CX3CR1BIIPMP54B2 (VHH, tested as periplasmic extract; not shown: C-terminal c-myc and His6 tags) VHH: EVQLVESGGGSVQAGESLRLSCAASGTIFSSNAMAWYRQAPGKQRDLVAGINSVDITKYADSVKGRFTISRDNAKNTVYLQMNSLKPEDTAVYYCTSDPRRGWNTRYWGQGTLVTVSS",65.3%
4,"CX3CR1BIIPMP61D5 (VHH, tested as periplasmic extract; not shown: C-terminal c-myc and His6 tags) VHH: KVQLVESGGGSVQAGESLRLSCAASGSIFSSNAMAWYRQAFGKQRDLVALINSVGITKYADSVKGRFTISRDNAKNTVYLQMNSLKPEDTAVYYCTSDPRRGWDTRYWGQGTQVTVSS",94.9%
5,"CX3CR1BIIPMP54H4 (VHH, tested as periplasmic extract; not shown: C-terminal c-myc and His6 tags) VHH: EVQLVESGGGSVQAGESLRLSCAASGSIFSSNAMAWYRQAPGKQRDLVAVINSVGITKYADSVKGRFTISGDNAKNTVYLQMNSLKPEDTAVYYCTSDARRGWDTRYWGQGTLVTVSS",96%
6,"CX3CR1BIIPMP61F4 (VHH, tested as periplasmic extract; not shown: C-terminal c-myc and His6 tags) VHH: EVQLVESGGGSVQAGASLRLSCAASGSIFSSNAMAWYRQAPGKQRDLVAVINTVGITKYADSVKGRFTISRDNAKNTVYLQMNSLKPEDTAVYYCTSDARRGWDTRYWGQGTLVTVSS",94.4%
7,"CX3CR1BIIPMP61G2 (VHH, tested as periplasmic extract; not shown: C-terminal c-myc and His6 tags) VHH: EVQLVKSGGGSVQAGESLRLSCAASGSIFSSNAMAWYRQAPGKQRDLVALINSVGITKYADSVKGRFTISRDNAKNTVYLQMNSLKPEDTAVYYCTSDPRRGWDTRYWGQGTQVTVSS",82%

# Target: T1, human CX3CR1
# Assay: fractalkine competition FACS
% block,IC50,Binder
101%,2.2 nM,"C100CX3CR1BII043 (VHH, 66B02 with A14P, A74S, K83R, Q108L; not shown: myc/His tag) VHH: EVQLVESGGGSVQPGESLRLSCAASGSIFSSNAMAWYRQAPGKRRDLVAAINSVGVTKYADSVKGRFTISRDNSKNTVYLQMNSLRPEDTAVYYCTSDPRRGWDTRYWGQGTLVTVSS"
101%,2.3 nM,"C100CX3CR1BII047 (VHH, 66B02 with S11L, A14P, A74S, K83R, Q108L; not shown: myc/His tag) VHH: EVQLVESGGGLVQPGESLRLSCAASGSIFSSNAMAWYRQAPGKRRDLVAAINSVGVTKYADSVKGRFTISRDNSKNTVYLQMNSLRPEDTAVYYCTSDPRRGWDTRYWGQGTLVTVSS"
101%,1.9 nM,"C100CX3CR1BII048 (VHH, 66B02 with A14P, E16G, A74S, K83R, Q108L; not shown: myc/His tag) VHH: EVQLVESGGGSVQPGGSLRLSCAASGSIFSSNAMAWYRQAPGKRRDLVAAINSVGVTKYADSVKGRFTISRDNSKNTVYLQMNSLRPEDTAVYYCTSDPRRGWDTRYWGQGTLVTVSS"
101%,2.2 nM,"C100CX3CR1BII045 (VHH, 66B02 with E1D, A14P, A74S, K83R, Q108L; not shown: myc/His tag) VHH: DVQLVESGGGSVQPGESLRLSCAASGSIFSSNAMAWYRQAPGKRRDLVAAINSVGVTKYADSVKGRFTISRDNSKNTVYLQMNSLRPEDTAVYYCTSDPRRGWDTRYWGQGTLVTVSS"
101%,16 nM,"C100CX3CR1BII056 (VHH, 66B02 with S11L, A14P, E16G, R44Q, A74S, K83R, Q108L; not shown: myc/His tag) VHH: EVQLVESGGGLVQPGGSLRLSCAASGSIFSSNAMAWYRQAPGKQRDLVAAINSVGVTKYADSVKGRFTISRDNSKNTVYLQMNSLRPEDTAVYYCTSDPRRGWDTRYWGQGTLVTVSS"

# The remaining lines, values behind:
Binder,% block,IC50
"C100CX3CR1BII061 (VHH, 66B02 with S11L, A14P, E16G, A74S, K83R, Q108L; not shown: myc/His tag) VHH: EVQLVESGGGLVQPGGSLRLSCAASGSIFSSNAMAWYRQAPGKRRDLVAAINSVGVTKYADSVKGRFTISRDNSKNTVYLQMNSLRPEDTAVYYCTSDPRRGWDTRYWGQGTLVTVSS",98.9%,1.4 nM
"C100CX3CR1BII049 (VHH, 66B02 with A14P, R44Q, A74S, K83R, Q108L; not shown: myc/His tag) VHH: EVQLVESGGGSVQPGESLRLSCAASGSIFSSNAMAWYRQAPGKQRDLVAAINSVGVTKYADSVKGRFTISRDNSKNTVYLQMNSLRPEDTAVYYCTSDPRRGWDTRYWGQGTLVTVSS",101%,18 nM
"C100CX3CR1BII057 (VHH, 66B02 with S11L, A14P, E16G, D46E, A74S, K83R, Q108L; not shown: myc/His tag) VHH: EVQLVESGGGLVQPGGSLRLSCAASGSIFSSNAMAWYRQAPGKRRELVAAINSVGVTKYADSVKGRFTISRDNSKNTVYLQMNSLRPEDTAVYYCTSDPRRGWDTRYWGQGTLVTVSS",99.4%,14 nM
"C100CX3CR1BII050 (VHH, 66B02 with A14P, D46E, A74S, K83R, Q108L; not shown: myc/His tag) VHH: EVQLVESGGGSVQPGESLRLSCAASGSIFSSNAMAWYRQAPGKRRELVAAINSVGVTKYADSVKGRFTISRDNSKNTVYLQMNSLRPEDTAVYYCTSDPRRGWDTRYWGQGTLVTVSS",101%,17 nM
"C100CX3CR1BII060 (VHH, 66B02 with S11L, A14P, E16G, R44Q, D46E, A74S, K83R, Q108L; not shown: myc/His tag) VHH: EVQLVESGGGLVQPGGSLRLSCAASGSIFSSNAMAWYRQAPGKQRELVAAINSVGVTKYADSVKGRFTISRDNSKNTVYLQMNSLRPEDTAVYYCTSDPRRGWDTRYWGQGTLVTVSS",98.4%,190 nM

# Target: T1, human CX3CR1
# Assay: fractalkine competition FACS
# Remark: another data set of the same source
% block,IC50,Binder
98%,1.7 nM,"CX3CR1BII66B02 (N52S, Q108L) (VHH, name in Kabat numbering) VHH: EVQLVESGGGSVQAGESLRLSCAASGSIFSSNAMAWYRQAPGKRRDLVAAISSVGVTKYADSVKGRFTISRDNAKNTVYLQMNSLKPEDTAVYYCTSDPRRGWDTRYWGQGTLVTVSS"
98%,1.1 nM,"CX3CR1BII66B02 (N52G, Q108L) (VHH, name in Kabat numbering, Kabat numbering) VHH: EVQLVESGGGSVQAGESLRLSCAASGSIFSSNAMAWYRQAPGKRRDLVAAIGSVGVTKYADSVKGRFTISRDNAKNTVYLQMNSLKPEDTAVYYCTSDPRRGWDTRYWGQGTLVTVSS"
97.9%,2.1 nM,"CX3CR1BII66B02 (N52Q, Q108L) (VHH, name in Kabat numbering, Kabat numbering) VHH: EVQLVESGGGSVQAGESLRLSCAASGSIFSSNAMAWYRQAPGKRRDLVAAIQSVGVTKYADSVKGRFTISRDNAKNTVYLQMNSLKPEDTAVYYCTSDPRRGWDTRYWGQGTLVTVSS"
